Here are results for one molecule from article PMC10803776, “Structure of the M. tuberculosis DnaK−GrpE complex reveals how key DnaK roles are controlled” (Nature Communications, 2024).

What is called Kd is the constant that tells how readily two partners part at equilibrium. By stoichiometry N is commonly meant a count of units in the complex or per binding partner.

For data set [1], the target named is T1, Mycobacterium tuberculosis DnaK, full length, wild type (Mycobacterium tuberculosis, UniProt P9WMJ9 1-625).
T1 construct: DnaK (Hsp70 chaperone) of Mycobacterium tuberculosis, full length; also called Mtb DnaK; WT DnaK
As to the kind of experiment: ITC; as a1, with 2 mM ATP added to both the DnaK and the GrpE solution. The following applies: both partners purified. Background: ITC needs no label: the signal is the heat of the interaction.

The data set “SEC” concerns the molecule itself. As to the kind of experiment: SEC. (In general: SEC sorts molecules by how far they enter the pores of the column.)
The target of data set [2] is T1, Mycobacterium tuberculosis DnaK, full …. As to the kind of experiment: ITC; as a1, with 2 mM ADP added to both the DnaK and the GrpE solution. Particulars: both partners purified.

B1: Mycobacterium tuberculosis GrpE, full length, wild type (natural protein)
chain: MTDGNQKPDGNSGEQVTVTDKRRIDPETGEVRHVPPGDMPGGTAAADAAHTEDKVAELTADLQRVQADFANYRKRALRDQQAAADRAKASVVSQLLGVLDDLERARKHGDLESGPLKSVADKLDSALTGLGLVAFGAEGEDFDPVLHEAVQHEGDGGQGSKPVIGTVMRQGYQLGEQVLRHALVGVVDTVVVDAAELESVDDGTAVADTAENDQADQGNSADTSGEQAESEPSGS
notes: GrpE (nucleotide exchange factor) of Mycobacterium tuberculosis, full length; also called Mtb GrpE; WT GrpE
As for B1, the Kd came to 20.7 µM in data set [1] and 1790 nM in data set [2]. For the same molecule, the “stoichiometry N” value in data set [1] is 0.07; in “SEC” it was 2; in data set [2] it was 0.69.
